Results on 1 substance are retold here after doi:10.1101/2025.05.03.652001.

This assay deals with E. coli lipoic acid ligase (LplA) variant A48N on the W37V background (E. coli). In words: SEC-SAXS; SEC-SAXS of purified LplA variant with lipoyl-AMS; DENSS ab initio envelope fitted with the major conformer; high protein concentrations required for SAXS; dimer model generated by AlphaFold3.

In general, stoichiometry N refers to the number of molecules, sites or subunits per partner or assembly. For “E. coli lipoic acid ligase (LplA) variant A48N on the W37V background (enzyme)”, the stoichiometry N came to 2.
